Experimental data taken from article PMC2917047.

Biological target: PDE6αβ catalytic dimer of rod cGMP phosphodiesterase 6 (bovine) (UniProt P11541)
Test: SDS-PAGE with Coomassie Blue densitometry of the purified complexes

PDE6αβ catalytic dimer of rod cGMP phosphodiesterase 6 (bovine), sequence (P11541 whole entry, chain 1 of 2): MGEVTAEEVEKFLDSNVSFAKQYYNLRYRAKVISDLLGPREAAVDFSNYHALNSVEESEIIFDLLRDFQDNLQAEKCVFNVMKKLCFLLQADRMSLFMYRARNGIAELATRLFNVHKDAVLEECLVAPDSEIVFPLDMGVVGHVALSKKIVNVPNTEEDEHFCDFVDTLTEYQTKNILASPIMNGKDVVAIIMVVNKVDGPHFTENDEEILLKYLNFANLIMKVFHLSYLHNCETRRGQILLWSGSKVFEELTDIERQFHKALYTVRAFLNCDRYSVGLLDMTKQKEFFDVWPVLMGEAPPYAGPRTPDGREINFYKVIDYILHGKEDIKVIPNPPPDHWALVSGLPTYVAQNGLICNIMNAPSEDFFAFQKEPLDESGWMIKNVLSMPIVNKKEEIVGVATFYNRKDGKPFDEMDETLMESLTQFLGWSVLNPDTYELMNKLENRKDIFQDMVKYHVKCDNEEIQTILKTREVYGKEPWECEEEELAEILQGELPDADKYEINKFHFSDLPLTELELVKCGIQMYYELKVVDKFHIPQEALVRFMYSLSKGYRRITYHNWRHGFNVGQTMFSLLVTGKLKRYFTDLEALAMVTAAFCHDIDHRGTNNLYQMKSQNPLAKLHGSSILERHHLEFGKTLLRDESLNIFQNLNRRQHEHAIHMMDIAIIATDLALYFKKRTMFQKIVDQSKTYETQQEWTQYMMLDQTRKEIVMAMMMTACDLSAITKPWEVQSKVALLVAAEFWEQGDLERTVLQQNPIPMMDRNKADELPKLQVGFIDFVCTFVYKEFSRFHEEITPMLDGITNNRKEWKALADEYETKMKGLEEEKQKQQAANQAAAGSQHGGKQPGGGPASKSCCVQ
PDE6αβ catalytic dimer of rod cGMP phosphodiesterase 6 (bovine), sequence (P23439 whole entry, chain 2 of 2, further chain): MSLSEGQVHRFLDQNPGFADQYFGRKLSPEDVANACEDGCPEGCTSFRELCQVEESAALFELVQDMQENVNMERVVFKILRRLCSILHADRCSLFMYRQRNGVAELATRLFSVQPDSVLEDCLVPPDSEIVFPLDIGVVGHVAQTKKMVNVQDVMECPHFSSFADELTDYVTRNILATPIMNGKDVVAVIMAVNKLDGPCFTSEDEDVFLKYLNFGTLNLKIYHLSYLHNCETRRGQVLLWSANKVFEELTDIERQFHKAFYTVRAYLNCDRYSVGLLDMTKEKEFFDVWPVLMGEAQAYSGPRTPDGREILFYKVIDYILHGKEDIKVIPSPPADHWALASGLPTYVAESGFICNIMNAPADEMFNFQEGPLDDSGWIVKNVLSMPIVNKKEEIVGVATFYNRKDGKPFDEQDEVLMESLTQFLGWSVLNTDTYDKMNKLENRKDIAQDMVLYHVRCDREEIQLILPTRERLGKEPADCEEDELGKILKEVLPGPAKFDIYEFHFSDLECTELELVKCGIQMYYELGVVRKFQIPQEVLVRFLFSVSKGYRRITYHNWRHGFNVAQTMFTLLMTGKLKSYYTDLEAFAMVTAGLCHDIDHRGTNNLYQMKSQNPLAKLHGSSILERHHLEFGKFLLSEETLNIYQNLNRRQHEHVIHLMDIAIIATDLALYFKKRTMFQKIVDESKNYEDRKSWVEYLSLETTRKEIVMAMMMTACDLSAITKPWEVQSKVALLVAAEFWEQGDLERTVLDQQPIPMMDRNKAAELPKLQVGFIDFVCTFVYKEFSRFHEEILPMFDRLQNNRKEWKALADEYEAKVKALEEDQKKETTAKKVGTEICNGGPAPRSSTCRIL

B1: PDE6γ regulatory (inhibitory) subunit of rod cGMP phosphodiesterase 6 (natural protein)
chain: MNLEPPKAEIRSATRVMGGPVTPRKGPPKFKQRQTRQFKSKPPKKGVQGFGDDIPGMEGLGTDITVICPWEAFNHLELHELAQYGII
A stoichiometry N of 2 was found for B1 in this work.
